{"source": "patent US20180155451A1", "about": "(published 2018)", "binders": {"B1": {"name": "GpH7-A5/GpH7-B3 variant L328_11K/GpL16-k0 (antibody, human IgG1, kappa)", "heavy 1": "not shown", "heavy 2": "not shown", "light": "DIVMTQSPLSLPVTPGEPASISCQASESLVHSNRNTYLHWYLQKPGQSPQLLIYKVSNRFSGVPDRFSGSGSGTDFTLKISRVEAEDVGVYYCSQNTHVPPTFGQGTKVEIERTVAAPSVFIFPPSDEQLKSGTASVVCLLNNFYPREAKVQWKVDNALQSGNSQESVTEQDSKDSTYSLSSTLTLSKADYEKHKVYACEVTHQGLSSPVTKSFNRGEC", "notes": "He Ab: heterodimerized anti-glypican-3 IgG1, substitution in one H chain only; also called He Ab L328K"}, "B2": {"name": "GpH7-A5/GpH7-B3 variant L328_12R/GpL16-k0 (antibody, human IgG1, kappa)", "heavy 1": "not shown", "heavy 2": "not shown", "light": "B1 light", "notes": "He Ab: heterodimerized anti-glypican-3 IgG1, substitution in one H chain only; also called He Ab L328R"}, "B3": {"name": "GpH7-B3 variant Y300_01G/GpL16-k0 (antibody, human IgG1, kappa)", "heavy": "not shown", "light": "B1 light", "notes": "homodimerized IgG1; mutation in both H chains; also called Ho Ab"}, "B4": {"name": "GpH7-B3 variant T335_16H/GpL16-k0 (antibody, human IgG1, kappa)", "heavy": "not shown", "light": "B1 light", "notes": "as for B3"}, "B5": {"name": "GpH7-B3 variant T335_18N/GpL16-k0 (antibody, human IgG1, kappa)", "heavy": "not shown", "light": "B1 light", "notes": "as for B3"}, "B6": {"name": "GpH7-B3 variant T335_19Q/GpL16-k0 (antibody, human IgG1, kappa)", "heavy": "not shown", "light": "B1 light", "notes": "as for B3"}, "B7": {"name": "GpH7-B3 variant T335_20W/GpL16-k0 (antibody, human IgG1, kappa)", "heavy": "not shown", "light": "B1 light", "notes": "as for B3"}, "B8": {"name": "GpH7-B3 variant Y296_06M/GpL16-k0 (antibody, human IgG1, kappa)", "heavy": "not shown", "light": "B1 light", "notes": "as for B3"}, "B9": {"name": "GpH7-B3 variant Y296_10E/GpL16-k0 (antibody, human IgG1, kappa)", "heavy": "not shown", "light": "B1 light", "notes": "as for B3"}, "B10": {"name": "GpH7-B3 variant Y296_11K/GpL16-k0 (antibody, human IgG1, kappa)", "heavy": "not shown", "light": "B1 light", "notes": "as for B3"}, "B11": {"name": "GpH7-B3 variant Y296_12R/GpL16-k0 (antibody, human IgG1, kappa)", "heavy": "not shown", "light": "B1 light", "notes": "as for B3"}, "B12": {"name": "GpH7-B3 variant Y296_13S/GpL16-k0 (antibody, human IgG1, kappa)", "heavy": "not shown", "light": "B1 light", "notes": "as for B3"}, "B13": {"name": "GpH7-B3 variant Y296_14T/GpL16-k0 (antibody, human IgG1, kappa)", "heavy": "not shown", "light": "B1 light", "notes": "as for B3"}, "B14": {"name": "GpH7-B3 variant Y296_16H/GpL16-k0 (antibody, human IgG1, kappa)", "heavy": "not shown", "light": "B1 light", "notes": "as for B3"}, "B15": {"name": "GpH7-B3 variant Y296_18N/GpL16-k0 (antibody, human IgG1, kappa)", "heavy": "not shown", "light": "B1 light", "notes": "as for B3"}, "B16": {"name": "GpH7-B3 variant Y296_19Q/GpL16-k0 (antibody, human IgG1, kappa)", "heavy": "not shown", "light": "B1 light", "notes": "as for B3"}, "B17": {"name": "GpH7-B3 variant Y296_20W/GpL16-k0 (antibody, human IgG1, kappa)", "heavy": "not shown", "light": "B1 light", "notes": "as for B3"}, "B18": {"name": "GpH7-B3 variant Y300_02A/GpL16-k0 (antibody, human IgG1, kappa)", "heavy": "not shown", "light": "B1 light", "notes": "as for B3"}, "B19": {"name": "GpH7-B3 variant Y300_03V/GpL16-k0 (antibody, human IgG1, kappa)", "heavy": "not shown", "light": "B1 light", "notes": "as for B3"}, "B20": {"name": "GpH7-B3 variant Y300_06M/GpL16-k0 (antibody, human IgG1, kappa)", "heavy": "not shown", "light": "B1 light", "notes": "as for B3"}, "B21": {"name": "GpH7-B3 variant Y300_08L/GpL16-k0 (antibody, human IgG1, kappa)", "heavy": "not shown", "light": "B1 light", "notes": "as for B3"}, "B22": {"name": "GpH7-B3 variant Y300_09D/GpL16-k0 (antibody, human IgG1, kappa)", "heavy": "not shown", "light": "B1 light", "notes": "as for B3"}, "B23": {"name": "GpH7-B3 variant Y300_10E/GpL16-k0 (antibody, human IgG1, kappa)", "heavy": "not shown", "light": "B1 light", "notes": "as for B3"}, "B24": {"name": "GpH7-B3 variant Y300_11K/GpL16-k0 (antibody, human IgG1, kappa)", "heavy": "not shown", "light": "B1 light", "notes": "as for B3"}, "B25": {"name": "GpH7-B3 variant Y300_13S/GpL16-k0 (antibody, human IgG1, kappa)", "heavy": "not shown", "light": "B1 light", "notes": "as for B3"}, "B26": {"name": "GpH7-B3 variant Y300_14T/GpL16-k0 (antibody, human IgG1, kappa)", "heavy": "not shown", "light": "B1 light", "notes": "as for B3"}}}
{"biological_target": "T1, FcγRIa extracellular domain with C-terminal His tag (human, UniProt P12314 16-292)", "T1 construct": "extracellular domain; Soluble receptor expressed in FreeStyle293 cells; analyte in Biacore; also called FcgRI; FcgRIa; not shown: His tag at the C terminus", "T1 sequence (P12314 16-292)": "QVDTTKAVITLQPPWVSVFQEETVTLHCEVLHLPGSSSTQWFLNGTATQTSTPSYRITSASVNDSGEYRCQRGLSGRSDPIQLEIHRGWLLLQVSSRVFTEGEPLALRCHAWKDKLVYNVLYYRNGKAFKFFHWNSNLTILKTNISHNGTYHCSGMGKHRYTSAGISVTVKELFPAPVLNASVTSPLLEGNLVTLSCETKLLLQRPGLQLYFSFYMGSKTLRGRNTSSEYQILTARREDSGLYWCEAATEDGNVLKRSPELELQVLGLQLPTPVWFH", "assay": "SPR (Biacore); He/Con_1a divided by He/Con_2b (FcγRIIb)", "procedure": "(§1) The heterodimerized antibodies He Abs in which one of the H chains was introduced with an alteration were assayed for their binding activities to each activating FcγR and inhibitory FcγR according to the method described in Example 4. […] The activating FcγRs in FIGS. 26, 27, 28, and 29 are FcγRIa, FcγRIIa (R), FcγRIIa (H), and FcγRIIIa, respectively.\n(§2) Analysis of interaction between objective antibody and the FcγR was carried out using Biacore T100 (GE Healthcare). HBS-EP+ (GE Healthcare) was used as the running buffer, and the measurement temperature was set to 25° C. Chips produced by immobilizing the antigen peptide by the amine coupling method to a Series S Sencor Chip CM5 (GE Healthcare), or alternatively, chips produced by allowing preliminarily biotinylated antigen peptides to interact with and immobilize onto a Series S Sensor Chip SA (certified) (GE Healthcare) were used. Antibodies of interest were captured onto an antigen peptide-immobilized chip, and allowed to interact to each FcγR diluted with running buffer. To regenerate and repeatedly use the chip, the antibodies captured on the chip were washed off by reacting 10 mM glycine-HCl, pH 1.5."}
{"binder": "B1", "He_1a/2b (Ia/IIb)": 10.5}
{"binder": "B2", "He_1a/2b (Ia/IIb)": 8.51}
{"biological_target": "T2, FcγRIa (human, UniProt P12314 16-292)", "T2 construct": "extracellular domain; also called FcgRI; CD64; not shown: C-terminal His tag", "T2 sequence (P12314 16-292)": "as above", "assay": "SPR (Biacore), antibody captured on antigen peptide chip, FcγRIa as analyte; relative binding amount", "procedure": "as §2"}
{"binder": "B3", "Ho/Con_1a": "109 % of control (GpH7-B3/GpL16-k0 = 100)"}
{"binder": "B4", "Ho/Con_1a": "104 % of control (GpH7-B3/GpL16-k0 = 100)"}
{"binder": "B5", "Ho/Con_1a": "102 % of control (GpH7-B3/GpL16-k0 = 100)"}
{"binder": "B6", "Ho/Con_1a": "105 % of control (GpH7-B3/GpL16-k0 = 100)"}
{"binder": "B7", "Ho/Con_1a": "104 % of control (GpH7-B3/GpL16-k0 = 100)"}
{"binder": "B8", "Ho/Con_1a": "104 % of control (GpH7-B3/GpL16-k0 = 100)"}
{"binder": "B9", "Ho/Con_1a": "106 % of control (GpH7-B3/GpL16-k0 = 100)"}
{"binder": "B10", "Ho/Con_1a": "102 % of control (GpH7-B3/GpL16-k0 = 100)"}
{"binder": "B11", "Ho/Con_1a": "103 % of control (GpH7-B3/GpL16-k0 = 100)"}
{"binder": "B12", "Ho/Con_1a": "105 % of control (GpH7-B3/GpL16-k0 = 100)"}
{"binder": "B13", "Ho/Con_1a": "105 % of control (GpH7-B3/GpL16-k0 = 100)"}
{"binder": "B14", "Ho/Con_1a": "105 % of control (GpH7-B3/GpL16-k0 = 100)"}
{"binder": "B15", "Ho/Con_1a": "105 % of control (GpH7-B3/GpL16-k0 = 100)"}
{"binder": "B16", "Ho/Con_1a": "104 % of control (GpH7-B3/GpL16-k0 = 100)"}
{"binder": "B17", "Ho/Con_1a": "106 % of control (GpH7-B3/GpL16-k0 = 100)"}
{"binder": "B18", "Ho/Con_1a": "110 % of control (GpH7-B3/GpL16-k0 = 100)"}
{"binder": "B19", "Ho/Con_1a": "112 % of control (GpH7-B3/GpL16-k0 = 100)"}
{"binder": "B20", "Ho/Con_1a": "111 % of control (GpH7-B3/GpL16-k0 = 100)"}
{"binder": "B21", "Ho/Con_1a": "109 % of control (GpH7-B3/GpL16-k0 = 100)"}
{"binder": "B22", "Ho/Con_1a": "111 % of control (GpH7-B3/GpL16-k0 = 100)"}
{"binder": "B23", "Ho/Con_1a": "111 % of control (GpH7-B3/GpL16-k0 = 100)"}
{"binder": "B24", "Ho/Con_1a": "101 % of control (GpH7-B3/GpL16-k0 = 100)"}
{"binder": "B25", "Ho/Con_1a": "110 % of control (GpH7-B3/GpL16-k0 = 100)"}
{"binder": "B26", "Ho/Con_1a": "110 % of control (GpH7-B3/GpL16-k0 = 100)"}
{"biological_target": "T1, FcγRIa extracellular domain with …", "assay": "SPR (Biacore), antibody captured on antigen peptide chip, FcγR as analyte; binding relative to GpH7-A5/GpH7-B3/GpL16-k0 = 100", "procedure": "as §1, §2"}
{"binder": "B1", "He/Con_1a (Ia binding)": "79.2 % of control (control = 100)"}
{"binder": "B2", "He/Con_1a (Ia binding)": "78.6 % of control (control = 100)"}
